Patent US20110045007A1

Tests used:
2F8-HG F273A (human) = test: non-covalent nano-electrospray mass spectrometry, 1 µM; self-association
2F8-HG F273L (human) = test: as above

percentage molecules present as monomers (2F8-HG F273A (human)) | percentage molecules present as monomers (2F8-HG F273L (human)) | Binder
> 80% | – | 2F8-HG F273A (antibody, part only; not given: 2F8 variable domains, not shown: a dimerising Fc or GST) heavy, part: ASTKGPSVFPLAPCSRSTSESTAALGCLVKDYFPEPVTVSWNSGALTSGVHTFPAVLQSSGLYSLSSVVTVPSSSLGTKTYTCNVDHKPSNTKVDKRVAPEFLGGPSVFLFPPKPKDTLMISRTPEVTCVVVDVSQEDPEVQFNWYVDGVEVHNAKTKPREEQFNSTYRVVSVLTVLHQDWLNGKEYKCKVSNKGLPSSIEKTISKAKGQPREPQVYTLPPSQEEMTKNQVSLTCLVKGFYPSDIAVEWESNGQPENNYKTTPPVLDSDGSFALYSRLTVDKSRWQEGNVFSCSVMHEALHNHYTQKSLSLSLGK
– | > 80% | 2F8-HG F273L (antibody, part only; not given: 2F8 variable domains, not shown: a dimerising Fc or GST) heavy, part: ASTKGPSVFPLAPCSRSTSESTAALGCLVKDYFPEPVTVSWNSGALTSGVHTFPAVLQSSGLYSLSSVVTVPSSSLGTKTYTCNVDHKPSNTKVDKRVAPEFLGGPSVFLFPPKPKDTLMISRTPEVTCVVVDVSQEDPEVQFNWYVDGVEVHNAKTKPREEQFNSTYRVVSVLTVLHQDWLNGKEYKCKVSNKGLPSSIEKTISKAKGQPREPQVYTLPPSQEEMTKNQVSLTCLVKGFYPSDIAVEWESNGQPENNYKTTPPVLDSDGSFLLYSRLTVDKSRWQEGNVFSCSVMHEALHNHYTQKSLSLSLGK
